The nature of the data set: soluble on expression in E. coli; label from the status in PepcDB or PDB records.
In the case of “GMAEQMRRVARLFGDWPETIIWTCLEGTMGDIYVDDSQSPQSALALYGRQSFFGFLAGQPHRDLLKICEGKNIILVPQNQAWSDLIEEVYGDGVRFFTRYATKKDTEFDLGHLQKLVDDLPESFDMKLIDRNLYETCLVEEWSRDLVGNYIDVEQFLDLGLGCVILHKGQVVSGASSYASYSAGIEIEVDTREDYRGLGLAKACAAQLILACLDRGLYPSWDAHTLTSLKLAEKLGYELDKAYQAYEWR”, the “soluble on expression in E. coli” value is reported as “soluble”. In the case of “GMDNWQDITDDRLVRPIHPGEVIADILDDLDINTANFAEILGVSNQTIQEVINGQRSITVDIAIRLGKALGNGPRLWLNLQQKVDLWYALQSHKEEYEQVMTLV”, the “soluble on expression in E. coli” value was “soluble”. Turning to “GMEKRLDYITDLMALGPTANARTIQRRQTAHRLAIAEAWQVKPGEKILEIGCGQGDLSAVLADQVGSSGHVTGIDIASPDYGAPLTLGQAWNHLLAGPLGDRLTVHFNTNLSDDLGPIADQHFDRVVLAHSLWYFASANALALLFKNMAAVCDHVDVAEWSMQPTALDQIGHLQAAMIQGLLYAIAPSDVANIRTLITPDTLAQIAHDNTWTYTAGTIVEDPTLDDAHWEIATTNALLTELKLSTDLRDRVKPLLEAMSHNGTASLATFTGRITF”, the “soluble on expression in E. coli” value is “soluble”. The same measure for “GMIDEKFLIESNELVESSKIVMVGTNGENGYPNIKAMMRLKHDGLKKFWLSTNTSTRMVERLKKNNKICLYFVDDNKFAGLMLVGTIEILHDRASKEMLWTDGCEIYYPLGIDDPDYTALCFTAEWGNYYRHLKNITFKIDEIYNY”: “soluble”; for “GMKEDTIEIAGFHAHVYFDAASRDVAARVREGLGARFEVQLGRWFDKPIGPHPKGMYQVAFLPNQFDKVVPWLMLNREGLDILVHPETGDAVSDHAVYSLWLGAALALNIEFLRQLSSTSSN”: “soluble”. For “GMKFNEFLNNLSNYEPGKDIEVIAKEYGVKEVIKLASNENPFGTPPKAIECLRQNANKAHLYPDDSMIELKSTLAQKYKVQNENIIIGAGSDQVIEFAIHSKLNSKNAFLQAGVTFAMYEIYAKQCGAKCYKTQSITHNLDEFKKLYETHKDEIKLIFLCLPNNPLGECLDASEATEFIKGVNEDCLVVIDAAYNEFASFKDSKKHLEPCELIKEFDNVLYLGTFSKLYGLGGLRIGYGIANANIISAFYKLRAPFNVSNLALKAAVAAMDDDEFTEKTLENNFSQMELYKEFAKKHNIKIIDSYTNFITYFFDEKNSTDLSEKLLKKGIIIRNLKSYGLNAIRITIGTSYENEKFFTEFDKILR”, the “soluble on expression in E. coli” value is on record as “soluble”. In the case of “GMLELVGEYWEQLKITVVPVVAAAEDDDNEQHEEKAAEGEEKEEENGDEDEDEDEDEDDDDDDDEDEEEEEEVTDQLEDLREHFKNTEEGKALVHHYEECAERVKIQQQQPGYADLEHKEDCVEEFFHLQHYLDTATAPRLFDKLK”, the “soluble on expression in E. coli” value is on record as “soluble”. The same measure for “GMMNTPESRLVAAGLELPEVAAALGNYEPYSIVGSQLMTSGQFPYLQGKLLYQGQLGADYTVSEGYAACRLATLNAIAQLKQACGELSRIKQIYRLEGVLNVHQSCIEHPKALDGASDLLLEIFGEAGRHSRMIWTNPVMPLNSLCLVYLFAEL”: “soluble”; for “GMNKKTQLLEVIAALPEELVDQALNYVQMLQNPIQITPGVCGGQARIRNTRIPVWTLVAYRQQGAPDKELLANYPGLTAEDLSAAWHYYEQNPEQIDREIAQDDLV”: “soluble”. The same measure for “GMNSNFSYPALGVDGISSQISPIRDVWSTNLQQEMNLIMSLIERYPVVSMDTEFPGVVARPLGVFKSSDDYHYQTLRANVDSLKIIQIGLALSDEEGNAPVEACTWQFNFTFNLQDDMYAPESIELLTKSGIDFKKHQEVGIEPADFAELLIGSGLVLQEEVTWITFHSGYDFAYLLKAMTQIPLPAEYEEFYKILCIYFPKNYDIKYIMKSVLNNSKGLQDIADDLQIHRIGPQHQAGSDALLTARIFFEIRSRYFDGSIDSRMLNQLYGLGSTGSVLWHNNSSTPQIQFRDLPGAHPSPTPSNAGIPTTLTNTSSAPNFANSTFRFPPRVV”: “soluble”.

For the sequence “GMRGLIVDYAGVLDGTDEDQRRWRNLLAAAKKNGVGTVILSNDPGGLGAAPIRELETNGVVDKVLLSGELGVEKPEEAAFQAAADAIDLPMRDCVLVDDSILNVRGAVEAGLVGVYYQQFDRAVVEIVGLFGLEGEF”, the “soluble on expression in E. coli” value is “soluble”. With “GMRNPSEDHMMRTPYQIVADHYAASDRHDPAAMMADIAPAIEWTEMAGFPCAGTYRSADEIVRNVFRRLGEEWDGYTFKLDALHDAGDTVIGVGRYSGTYRRTGKSFECRVAHVWRVDAGKIVHFEQFTDTLLVAQAMQP”, the “soluble on expression in E. coli” value is reported as “soluble”. As for “GMSDDLTDAQTAAIPEGFSQLNWSRGFGRQIGPLFEHREGPGQARLAFRVEEHHTNGLGNCHGGMLMSFADMAWGRIISLQKSYSWVTVRLMCDFLSGAKLGDWVEGEGELISEEDMLFTVRGRIWAGERTLITGTGVFKALSARKPRPGELAYKEEA”, the entry is “soluble”; as for “GMSDLQSLQPKLLWQWFDQICAIPHPSYKEEQLAQFIINWAKTKGFFAERDEVGNVLIRKPATVGMENRKPVVLQAHLDMVPQANEGTNHNFDQDPILPYIDGDWVKAKGTTLGADNGIGMASALAVLESNDIAHPELEVLLTMTEERGMEGAIGLRPNWLRSEILINTDTEENGEIYIGCAGGENADLELPIEYQVNNFEHCYQVVLKGLRGGHSGVDIHTGRANAIKVLLRFLAELQQNQPHFDFTLANIRGGSIRNAIPRESVATLVFNGDITVLQSAVQKFADVIKAELALTEPNLIFTLEKVEKPQQVFSSQCTKNIIHCLNVLPNGVVRNSDVIENVVETSLSIGVLKTEDNFVRSTMLVRSLIESGKSYVASLLKSLASLAQGNINLSGDYPGWEPQSHSDILDLTKTIYAQVLGTDPEIKVIHAGLECGLLKKIYPTIDMVSIGPTIRNAHSPDEKVHIPAVETYWKVLTGILAHIPSR”, “soluble”. “GMSRTLVLFDIDGTLLKVESMNRRVLADALIEVYGTEGSTGSHDFSGKMDGAIIYEVLSNVGLERAEIADKFDKAKETYIALFRERARREDITLLEGVRELLDALSSRSDVLLGLLTGNFEASGRHKLKLPGIDHYFPFGAFADDALDRNELPHIALERARRMTGANYSPSQIVIIGDTEHDIRCARELDARSIAVATGNFTMEELARHKPGTLFKNFAETDEVLASILTPKHS”: the “soluble on expression in E. coli” value is listed as “soluble”.

Regarding “GMTDGEAVSAAAGPGAEGPPGPVGHWAPGSHILWRYRENGGPHVHIARPVTVVRDDADLLAVWLAPGTECVKPVLADGTPVHLEPLATRYTKPRTVQRDQWFGTGVLKLARPGEAWSVWLFWDPGWRFKNWYVNLERPLTRWEGGVDSEDHFLDISVHPDRTWHWRDEDEFAQALRDGLMDPASAGRVRRAGRSAVAEIRAWGSPFADGWEHWRPDPAWPVPSLPGDWDRTPAHVSS”, the “soluble on expression in E. coli” value is reported as “soluble”. As for “GMTTPPARTAKQRIQDTLNRLELDVDAWVSTAGADGGAPYLVPLSYLWDGETFLVATPAASPTGRNLSETGRVRLGIGPTRDLVLVEGTALPLEPAGLPDGVGDTFAEKTGFDPRRLTTSYLYFRISPRRVQAWREANELSGRELMRDGEWLVTD”, the entry is “soluble”.

In the case of “GNGRFLTLKPLPDSIIQESLEIQQGVNPFFIGRSEDCNCKIEDNRLSRVHCFIFKKRHAVGKSMYESPAQGLDDIWYCHTGTNVSYLNNNRMIQGTKFLLQDGDEIKIIWDKNNKFVIGFKVEINDTTGLFNEGLGMLQEQRVVLKQTAEEKDLVKKL”, the “soluble on expression in E. coli” value is recorded as “soluble”. The same measure for “GNKIPTTMAFRTVTDVDNAVNGLYDLMSGSGYYGAAMFAYGDMKGDDMQSSEESGVCNTCYMFNHRPNSLNAGSLWGRPFYILREAWNILNAIAEGKIESGDEKKLNALKGETMAVIALCQFDLTRCFGYPYTKDKGASLGAPLIDHLVGTYENPPRSTVAQAYDFIIETLEEAVTLMSEEKNNGRMNKYAARALLARIYLYHDDNRKAFDLADQLIKDADTSGSYALYPHEKYVAAWSVEAKFGSESFFEIANSVDDTPGRDSWGYLLNWYGYQKGFVTQKYAEQMLADPGDVRGHLLEENKYAGKTVWWLYKLRGTDLKTAPLECNNVVLRLSEVYLIAAEAGCKLGGDAAVQGLGYLNEIVKRGNPDNEVTMADYTLDRVLDERSKELVGEGHRFFDLLRNGKTIVRKGGYHLPSVDEEVDWDFYKCVLPIPEDQFIFSPEMEQNPGYPKN”: “soluble”; for “GNNMYKLSENNHKSLLENLKRRGIIDDDDVYNTMLQVDRGKYIKEIPYIDTPVYISHGVTISAPHMHALSLKRLINVLKPGSRAIDVGSGSGYLTVCMAIKMNVLENKNSYVIGLERVKDLVNFSLENIKRDKPELLKIDNFKIIHKNIYQVNEEEKKELGLFDAIHVGASASELPEILVDLLAENGKLIIPIEEDYTQVLYEITKKNGKIIKDRLFDVCFVSLKKN”: “soluble”. The same measure for “GNWAEITDEISKIYQDNQYKIRQINDVDAVSDKRREALQALFEHTGRNVIVYYSAWLENGRRFSGQSTDFSVNDTDKNSFMTALHKLDQSKGLDLILHTPGGDVAATESLVDYIHALFGQDFRVIVPQLAMSAGTMIALSSKEIVMGKHSSLGPIDPQFNGLPAHGLLEEFEQAKKEVSENPQTAHIWQVILNKYNPTMLGEAKKAIQWSNSMVKQWLEKGMFLDEPDKEEKATRAIKELADHSVTLAHNRHISVSKALELGLNIKELESDPKLQDLVLTLHHLSVIAAQRGPLIKFVVNHDNRGTF”: “not soluble”; for “GPELYHYQECVRGTTVLLKEPCPSGTYEGNSPFHPLADNKFALTCTSTHFAFACADGTRHTYQLRARSVSPKLFIRQEEVQQELYSR”: “soluble”; for “GPGSMAHLFFTGACAAAAALPISDREEVSPVWSIYDDYCCGASQHAEVDDPQVEGEGVGNCGGTTPPRLPFISGPVSSMTLKGAQLKKEAPIRRGAQGAVYSALDVATSAPAEDEKAKGLFSPEACRGHEGEAQVADGGQRPARRGRRVAVKRIFIQASDFGARDISATVLREVTLHRFVSEKQAACLAAAGAFYPTGSTSDATALAEADQGQTLCNLIDDSARVIHLYRVVEAPHKEMCLVMELAATNLEQVVFPHGARGASRGDGAGGYKRKPGVVSLFGSSASIGVGGGLGLSSASPSTAPDAATAEVGPQASSPSPPPSRMPLVRYVMRRLLRLVCFLHETCCVVHRDLKLSNVLVSKDAGLRLGDFGSARFIPPLRSATKTGVENSPSVPEPPAAPAGQREHLLCTPPSIRTTLHYRPPEALLGDQVCRTAADVWALGVIFAQLLLQKGLFHSESELDLLGAIQKLLGMPTYSAPPSWLAAPSVPGPPRERESAAHVPAPQASLPYKFHTGVVPADGLDLLSRMLHQQPECRVTAREALQHPFLNLEGLSAAATHDDDERGRVLWEERVATVLREQATGHIYGMGGGERRPMLISLADNEDEEDQEDDEVGVAPFCVNLGGCTSY”: “not soluble”.

“GPGSMAPNQFVELVDTVEKYATRGSNECGCRIDTREESIPSNTLVGYPFANAEGVGVHLSYRKGDITLSADVSSNPKATWRDVLPTFSWTRSLRGQQHEVLLRLAMTPLFAYSFSHPQFTCSSEVNFMDGFRSKFTTSTQLSMRNQLGACVEYDPSRSGVIDYTVAFLRAGCSAVLGGDFVVQYNATRGLGVHTRIPVKPFMGAVALVERGRVIIGTEARSPCGAQMMMNLDLVNSRVMLAVVRNISTVWKFTFNYSAPLPGTSSAARRFGLVFTSQDAP”: the “soluble on expression in E. coli” value is on record as “not soluble”. As for “GPGSMCNRFSCSSCRYVVPIQSRRPLTINHSFLKYNKVVDDDDEKGSSNTVKRGVKEEEEVDGGQVITVRCQNDEKQCDGDRAHYVQIQMRSADEPATTFFKCLKCGFQWKQD”, the entry is “soluble”.

Source of the values: the DeepSol protein solubility set.
